Two molecules from paper PMC5320558, “The general PTS component HPr determines the preference for glucose over mannitol” (Scientific Reports, 2017) can be followed below.

One may read the Kd as the equilibrium constant for the complex coming apart. Lower therefore signals a tighter complex. Broadly, the stoichiometry N is a count of units in the complex or per binding partner.

The target of series [1] is Untagged HPr (wild type) (E. coli) (UniProt P0AA04). In words: SPR; HPr immobilised on a CM5 sensor chip, various concentrations of MtlR applied; BIAcore 3000; BIAevaluation, assuming a 1:1 interaction.
Series [2] has the same target. Kind of series: SEC; gel filtration on Superose 12 10/300 GL of MtlR alone, HPr alone and their mixture; fractions analysed by SDS-PAGE. In general terms: In gel filtration, larger molecules generally elute earlier.
Series [3] deals with the molecule itself. The series is described as above.

For “Untagged MtlR (mannitol operon repressor) (from UniProt P0AF10 1-195) (natural protein)”, in series [1], the equilibrium dissociation constant (Kd) stood at 62.2 nM. Moreover, the stoichiometry N in series [2] was 1 HPr:MtlR.

B1: Untagged MtlR (mannitol operon repressor) (natural protein, E. coli, UniProt P0AF10 1-195, looked up)
chain: MVDQAQDTLRPNNRLSDMQATMEQTQAFENRVLERLNAGKTVRSFLITAVELLTEAVNLLVLQVFRKDDYAVKYAVEPLLDGDGPLGDLSVRLKLIYGLGVINRQEYEDAELLMALREELNHDGNEYAFTDDEILGPFGELHCVAALPPPPQFEPADSSLYAMQIQRYQQAVRSTMVLSLTELISKISLKKAFQK
notes: MtlR, transcriptional repressor of the mtl operon, E. coli; monomer approximately 22.0 kDa; Eluted as a tetramer in gel filtration; source: overexpressed, purified (MonoQ, Superdex 75)
For B1, in series [3], the “stoichiometry N” value was determined as 4.
